Reference: patent US20080044405A1 (Harvard, published 2008)

Columns and labels:
[1] = biological target: T1, HLA-DR1 (soluble, produced by Drosophila S2 cell lines) (human); experiment: fluorescence polarization, DR1-CLIP-AlexaFluor488 0.1 uM at 37 C in the presence of 100 uM K2PdCl4, no DM, no excess HA peptide
[2] = biological target: T1, HLA-DR1 (soluble, produced by …); experiment: fluorescence polarization, DR1-CLIP-AlexaFluor488 0.1 uM at 37 C with DM (0.1 uM) and excess unlabeled HA peptide (100 uM), no metal
[3] = biological target: T1, HLA-DR1 (soluble, produced by …); experiment: fluorescence polarization, DR1-CLIP-AlexaFluor488 0.1 uM at 37 C in the presence of 100 uM cisplatin, no DM, no excess HA peptide
[4] = biological target: T1, HLA-DR1 (soluble, produced by …); experiment: fluorescence polarization, DR1-CLIP-AlexaFluor488 0.1 uM at 37 C in the presence of 100 uM K2PtCl4, no DM, no excess HA peptide
[5] = biological target: T1, HLA-DR1 (soluble, produced by …); experiment: fluorescence polarization, DR1-CLIP-AlexaFluor488 0.1 uM at 37 C in the presence of 100 uM KAuCl4, no DM, no excess HA peptide
[6] = biological target: T1, HLA-DR1 (soluble, produced by …); experiment: fluorescence polarization, DR1-CLIP-AlexaFluor488 0.1 uM at 37 C without DM, with excess unlabeled HA peptide (100 uM), no metal (intrinsic dissociation)

B1: Alexa-Fluor 488-labeled CLIP peptide (peptide)
peptide: CPVSKMRMATPLLMQA
modifications: Cys labelled with AlexaFluor 488 C5 maleimide
notes: an N-terminal Cys is added to CLIP(87-101); also called af-CLIP; CLIP-AlexaFluor488
- t1/2 of CLIP dissociation [1]: 1.59 h
- t1/2 of CLIP dissociation [2]: 8.66 h
- t1/2 of CLIP dissociation [3]: 4.34 h
- t1/2 of CLIP dissociation [4]: 3.05 h
- t1/2 of CLIP dissociation [5]: 2.76 h
- t1/2 of CLIP dissociation [6]: 94.6 h
